Experimental findings from patent publication US20190271705A1 are described below.

In experiment [1] the target is seven peptides (fluorescein-labeled pTyr-containing peptides of the fluorescence polarization assay). The experiment is described as follows: fluorescence polarization in solution, SH2 domain titrated against fluorescein-labeled peptide.
The target is the same in experiment [2]. The experiment is described as follows: fluorescence polarization in solution; average over seven peptides, reference wild-type Fyn SH2 domain.

Positions count from the first letter of the chain named. Numbers in names are those of the source.

B1: wild-type Fyn SH2 domain (hexa-histidine-tagged construct, SEQ ID NO:4) (protein)
chain: MKIEEHHHHHHSSGRENLYFQGGAAQPAAPVDSIQAEEWYFGKLGRKDAERQLLSFGNPRGTFLIRESETTKGAYSLSIRDWDDMKGDHVKHYKIRKLDNGGYYITTRAQFETLQQLVQHYSERAAGLSSRLVVPSHKGAAA
The term Kd denotes the concentration at which binding is half-saturated. The low end stands for a tighter complex, the high end for a looser complex. In experiment [1], B1 displayed a Kd of 10 µM.

B2: T8I/S10A/K15L variant Fyn SH2 domain (designed binder)
chain: B1 chain with T71I, S76A, K94L
Molecule B2 showed an average fold affinity increase (Kd[wild-type] divided by Kd[variant]) in experiment [2] of 86.4 fold.

B3: T8V variant Fyn SH2 domain (designed binder)
chain: B1 chain with T71V
In the case of B3, the average fold affinity increase (Kd[wild-type] divided by Kd[variant]) in experiment [2] is 1.4 fold.
